Data reported in PMC8294337 (BBA advances, 2021).

Molecular target: the molecule itself
Experiment: SDS-PAGE

B1: T74S KcsA (pH-gated potassium channel KcsA with the mutation T74S) (natural protein, UniProt P0A334 1-160, looked up)
chain: MPPMLSGLLARLVKLLLGRHGSALHWRAAGAATVLLVIVLLAGSYLAVLAERGAPGAQLITYPRALWWSVETASTVGYGDLYPVTLWGRLVAVVVMVAGITSFGLVTAALATWFVGREQERRGHFVRHSEKAAEEAYTRTTRALHERFDRLERMLDDNRR
- stoichiometry N: 4
